Measured values from publication PMC11994974 (Virus Research, 2025).

Key:
[1] = molecular target: recombinant nucleoprotein (NP) of influenza A/Brisbane/10/2007 (H3N2) (Influenza A virus A/Brisbane/10/2007 …, UniProt P03466, strain); assay: BLI
[2] = molecular target: recombinant NP of influenza A/PR/8/34 (H1N1) purified from bacteria (Influenza A virus A/Puerto Rico/8/1934 …, UniProt P03466); assay: far-Western, overlay or dot blot
[3] = molecular target: NP WT 1–498 (deletion library, wild type) (Influenza A virus A/California/07/2009 …, UniProt C6KQ05, strain); assay: far-Western, overlay or dot blot
[4] = molecular target: NP in H1N1 viral lysate (A/Puerto Rico/8/34) (Influenza A virus A/Puerto Rico/8/1934 …, UniProt P03466); assay: far-Western, overlay or dot blot

B1: anti-NP mouse monoclonal antibody HB65 (antibody, V domains shown)
VH: EVKLVESGGALVNPGGSLKLSCAASGFIFSSYAMSWIRQTPEKRLEWVASTSGGGTTYYLDSVRGRFTISRDNARRILYLQMTSLRSEDTAIYFCGRDGNWFTSWGQGTLVTVSI
VL: NIVMTQSPKSMSMSVGERVTLTCKASENVVTYVSWYQQKPEQSPKLLIYGASNRYTGVPDRFTGSGSATDFTLTISSVQAEDLADYHCGQGYSYPYTFGGGTKLEIK
B1 was tested, and the Kd [1] was 0.12 ± 0.021 µM, the binding result [2] was “binds” and the binding result [3] was “binds”. B1: binds [4].
